# Experimental data: US20120005127A1
# Target: IL-1 receptor (human) (UniProt P14778)
# Experiment: cell-based or functional assay
# Sequence of UniProt P14778 (P14778 18-569): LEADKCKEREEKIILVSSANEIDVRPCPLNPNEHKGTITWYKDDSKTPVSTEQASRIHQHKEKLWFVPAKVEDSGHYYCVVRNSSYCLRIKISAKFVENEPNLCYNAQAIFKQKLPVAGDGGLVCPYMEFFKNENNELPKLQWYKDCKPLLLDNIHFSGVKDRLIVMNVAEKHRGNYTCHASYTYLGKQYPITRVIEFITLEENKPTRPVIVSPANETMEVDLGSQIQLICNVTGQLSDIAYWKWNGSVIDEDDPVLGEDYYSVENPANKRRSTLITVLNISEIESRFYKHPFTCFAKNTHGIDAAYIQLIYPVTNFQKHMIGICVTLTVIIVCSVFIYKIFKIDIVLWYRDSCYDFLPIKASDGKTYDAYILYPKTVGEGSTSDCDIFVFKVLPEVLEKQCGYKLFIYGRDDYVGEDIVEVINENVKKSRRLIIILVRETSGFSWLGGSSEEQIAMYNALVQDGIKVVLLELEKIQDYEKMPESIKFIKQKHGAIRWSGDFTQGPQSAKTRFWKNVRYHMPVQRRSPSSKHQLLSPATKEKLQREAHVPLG
substance,measurement,value
Kineret® (anakinra) (from UniProt P18510 26-177) (ligand),IC50 (pM): inhibition of IL-1β induced production of IL-8 in human whole blood,53.4 pM
